Source: patent US20080020978A1 (Amgen, published 2008)
Ends that are not written are not given here.

B1: SEQ ID NO 20 (peptide)
peptide: CGGGGGGGVTHRLAGLLSRSGGVVKNNFVPTDVGPFAF-NH2
modifications: not fully specified (residue 1); printed as CGGGGGGGVTHRLAGLLSRSGGVVKNNFVPTDVGPFAF-NH2
B2: SEQ ID NO 18 (peptide)
peptide: Ac-WVTHRLAGLLSRSGGVCRNNFVPTDVGPFAF-NH2
modifications: not fully specified (residue 17); printed as Ac-WVTHRLAGLLSRSGGVCRNNFVPTDVGPFAF-NH2

These binders were tested against T1, CGRP1 receptor (CRLR/RAMP1 complex) of human neuroblastoma SK-N-MC cells (human, UniProt Q16602 23-461; O60894 27-148) (assay: cell-based or functional assay).
T1 sequence (Q16602 23-461, chain 1 of 2): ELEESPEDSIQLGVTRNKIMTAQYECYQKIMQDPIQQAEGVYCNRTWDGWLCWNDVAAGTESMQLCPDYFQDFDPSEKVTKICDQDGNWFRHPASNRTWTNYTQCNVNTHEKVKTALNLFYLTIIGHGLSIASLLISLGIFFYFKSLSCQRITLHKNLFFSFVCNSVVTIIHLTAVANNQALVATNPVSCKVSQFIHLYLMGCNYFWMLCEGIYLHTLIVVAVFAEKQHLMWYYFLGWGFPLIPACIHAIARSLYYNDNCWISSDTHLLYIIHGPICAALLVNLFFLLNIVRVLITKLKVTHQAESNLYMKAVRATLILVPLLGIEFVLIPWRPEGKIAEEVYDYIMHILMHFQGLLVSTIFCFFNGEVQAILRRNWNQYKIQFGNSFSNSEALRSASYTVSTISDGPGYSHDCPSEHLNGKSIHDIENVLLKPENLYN
T1 sequence (O60894 27-148, chain 2 of 2): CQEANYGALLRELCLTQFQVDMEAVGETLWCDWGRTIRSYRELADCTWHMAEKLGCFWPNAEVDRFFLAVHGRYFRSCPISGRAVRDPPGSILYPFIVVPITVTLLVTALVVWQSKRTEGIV

| Binder | IC50 |
| --- | --- |
| WVTHXLAGLLSXSGGVVRKNFVPTDVGPFAF (Ac-WVTH[Cit]LAGLLS[Cit]SGG VVRK^(20 kDa MeO-PEG)NFVPTDVGPFAF-amide) [SEQ ID NO 791] | 3.74 nM |
| Ac-WVTHRLAGLLSRSGGVVRK(20 kDa MeO‑PEG)NFVPTDVGPFAF-NH2 [SEQ ID NO 809] | 0.32 nM |

Molecular target: T1, CGRP1 receptor (CRLR/RAMP1 complex) of …
Experiment: cell-based or functional assay
Remark: another data set of the same source

| Binder | IC50 |
| --- | --- |
| B1 | 138 nM |
| Ac-WVTHRLAGLLSRSGGVVRKNFVPTDVGPFAF-NH2 [SEQ ID NO 7] | 0.13 nM |
| CGGGGGGGVTHRLAGLLSRSGGVVKNNFVPTDVGPFAF-NH2 [SEQ ID NO 3] | 0.72 nM |
| Ac-WVTHRLAGLLSRSGGVCRNNFVPTDVGPFAF-NH2 [SEQ ID NO 10] | 0.36 nM |
| Ac-WVTHRLAGLLSRSGGVKRNNFVPTDVGPFAF-NH2 [SEQ ID NO 11] | 0.51 nM |
| Ac-WVTHRLAGLLSRSGGVVRCNFVPTDVGPFAF-NH2 [SEQ ID NO 8] | 0.5 nM |
| Ac-WVTHRLAGLLSRSGGVVCNNFVPTDVGPFAF-NH2 [SEQ ID NO 9] | 2.15 nM |
| B2 | 0.16 nM |

Molecular target: T1, CGRP1 receptor (CRLR/RAMP1 complex) of …
Experiment: cell-based or functional assay
Remark: another data set of the same source

| Binder | fold loss of potency against SEQ ID NO:3 | fold change in potency against SEQ ID NO:1 | fold change in potency against SEQ ID NO:9 |
| --- | --- | --- | --- |
| B1 | > 190 fold |  |  |
| WVTHRLAGLLSRSGGVVKNNFVPTNVGSKAF-NH2 [SEQ ID NO 4] |  | > 7 fold |  |
| CGGGGGGGVTHRLAGLLSRSGGVVKNNFVPTDVGPFAF-NH2 [SEQ ID NO 3] |  | > 6 fold |  |
| Ac-WVTHRLAGLLSRSGGVVRCNFVPTDVGPFAF-NH2 [SEQ ID NO 8] |  |  | > 4 fold |
| B2 |  | ~31 fold |  |

The binders below were run against T2, rat ortholog of the CGRP1 receptor (rat, UniProt Q63118 24-464; Q9JJ74 27-148, limits assumed) (assay: cell-based or functional assay).
T2 sequence (Q63118 24-464 limits assumed, chain 1 of 2): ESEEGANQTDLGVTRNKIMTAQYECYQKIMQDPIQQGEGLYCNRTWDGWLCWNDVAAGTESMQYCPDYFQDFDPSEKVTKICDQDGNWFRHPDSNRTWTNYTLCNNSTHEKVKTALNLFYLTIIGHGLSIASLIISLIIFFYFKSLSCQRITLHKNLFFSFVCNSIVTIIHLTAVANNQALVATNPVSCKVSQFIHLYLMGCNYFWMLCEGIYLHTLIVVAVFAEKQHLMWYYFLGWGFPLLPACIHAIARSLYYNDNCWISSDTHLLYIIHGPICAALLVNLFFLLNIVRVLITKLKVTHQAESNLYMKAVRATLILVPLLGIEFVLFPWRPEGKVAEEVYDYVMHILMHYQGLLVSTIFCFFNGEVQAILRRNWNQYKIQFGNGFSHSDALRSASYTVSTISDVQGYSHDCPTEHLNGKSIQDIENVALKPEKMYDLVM
T2 sequence (Q9JJ74 27-148 limits assumed, chain 2 of 2): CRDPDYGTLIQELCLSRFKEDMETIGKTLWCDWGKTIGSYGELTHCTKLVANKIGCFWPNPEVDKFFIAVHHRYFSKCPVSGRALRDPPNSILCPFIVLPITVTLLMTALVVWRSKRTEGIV

| Binder | fold loss of potency against SEQ ID NO:31 |
| --- | --- |
| WVTHXLAGLLSXSGGVVRKNFVPTDVGPFAF (Ac-WVTH[Cit]LAGLLS[Cit]SGG VVRK^(20 kDa MeO-PEG)NFVPTDVGPFAF-amide) [SEQ ID NO 791] | ~9 fold |

Molecular target: T2, rat ortholog of the CGRP1 receptor
Experiment: cell-based or functional assay
Remark: another data set of the same source

| Binder | in vitro IC50 (rat ortholog; nM) |
| --- | --- |
| WVTHXLAGLLSXSGGVVRKNFVPTDVGPFAF (Ac-WVTH[Cit]LAGLLS[Cit]SGG VVRK^(20 kDa MeO-PEG)NFVPTDVGPFAF-amide) [SEQ ID NO 791] | 131 nM |
| WVTHXLAGLLSXSGGVVXKNFVPTDVGPXAF (Ac-WVTH[Cit]LAGLLS[Cit]SGGVV[hArg]K(20 KPEGald)NFVPTDVGP[1-Nal]AF-NH2) [SEQ ID NO 173] | 49.5 nM |
| WVTHXLAGLLSXSGGVVXKNFVPTDVGPFAF (Ac-WVTH[Cit]LAGLLS[Cit]SGGVV[hArg]KNFVPTDVGPFAF-NH2) [SEQ ID NO 739] | 8.9 nM |
| Ac-WVTHRLAGLLSRSGGVVRKNFVPTDVGPFAF-NH2 [SEQ ID NO 808] | 5.4 nM |
| Ac-WVTHRLAGLLSRSGGVVRK(20 kDa MeO‑PEG)NFVPTDVGPFAF-NH2 [SEQ ID NO 809] | 6.4 nM |

Molecular target: T1, CGRP1 receptor (CRLR/RAMP1 complex) of …
Experiment: cell-based or functional assay
Remark: another data set of the same source

| Binder | IC50 |
| --- | --- |
| Ac-WVTHRLAGLLSRSGGVVRKNFVPTDVGPFAF-NH2 [SEQ ID NO 7] | 0.13 nM |
| WFVPTDVGPFAF-NH2 [SEQ ID NO 96] | 21.7 nM |
| WVTHRLAGLLSRSGGVVKNNFVPTNVGSKAF-NH2 [SEQ ID NO 4] | 0.64 nM |
| Ac-VTHRLAGLLSRSGGVVRKNFVPTDVGPFAF-NH2 [SEQ ID NO 6] | 0.7 nM |
| CGGGGGGGVTHRLAGLLSRSGGVVKNNFVPTDVGPFAF-NH2 [SEQ ID NO 3] | 0.72 nM |
| CGGGGGGGPTDVGPFAF-NH2 [SEQ ID NO 45] | 56.6 nM |
| Ac-WVTHRLAGLLSRSGGVCRNNFVPTDVGPFAF-NH2 [SEQ ID NO 10] | 0.36 nM |
| Ac-WVTHRLAGLLSRSGGVKRNNFVPTDVGPFAF-NH2 [SEQ ID NO 11] | 0.51 nM |
| Ac-WVTHRLAGLLSRSGGVVRCNFVPTDVGPFAF-NH2 [SEQ ID NO 8] | 0.5 nM |
| CGGGGGGGVTHRLAGLLSRSGGVVKNNFVPTNVGSKAF-NH2 [SEQ ID NO 2] | 21.1 nM |
| Ac-WVTHRLAGLLSRSGGVVCNNFVPTDVGPFAF-NH2 [SEQ ID NO 9] | 2.15 nM |

Each binder was assayed against T1, CGRP1 receptor (CRLR/RAMP1 complex) of … (assay: 125I-hαCGRP competition, SK-N-MC membranes).
Description: CGRP₁ binding experiments. […] The plates were incubated at room temperature for 2 hour with shaking at 60 rpm, then the contents of each well were filtered over 0.5% polyethyleneimine (PEI)-treated (at least one hour) GF/C 96-well filter plates. The GF/C filter plates were washed 6 times with ice-cold 50 mM Tris, pH 7.5 and dried in an oven at 55 C for 1 hour. The bottoms of the GF/C plates were then sealed, and 40 μl Microscint™ 20 was added to each well, then the tops of the GF/C plates were sealed with TopSeal™-A, a press-on adhesive sealing film, and the GF/C plates were counted with TopCount NXT (Packard). The data were analyzed by using ActivityBase (IDBS) or Prizm (GraphPad) software.

| Binder | Ki |
| --- | --- |
| Ac-VTHRLAGLLSRSGGVVRKNFVPTDVGPFAF-NH2 [SEQ ID NO 6] | 0.04 nM |
| WVTHXLAGLLSXSGGVVRKNFVPTDVGPFAF (Ac-WVTH[Cit]LAGLLS[Cit]SGG VVRK^(20 kDa MeO-PEG)NFVPTDVGPFAF-amide) [SEQ ID NO 791] | 1.83 nM |
| WVTHXLAGLLSXSGGVVXKNFVPTDVGPXAF (Ac-WVTH[Cit]LAGLLS[Cit]SGGVV[hArg]K(20 KPEGald)NFVPTDVGP[1-Nal]AF-NH2) [SEQ ID NO 173] | 0.84 nM |
| WVTHXLAGLLSXSGGVVXKNFVPTDVGPFAF (Ac-WVTH[Cit]LAGLLS[Cit]SGGVV[hArg]KNFVPTDVGPFAF-NH2) [SEQ ID NO 739] | 0.53 nM |
